This assay addresses T1, human thrombin (Homo sapiens, UniProt P00734).
T1 construct: biotin (chemical label)
The assay is described as follows: mRNA display selection against thrombin, selected sequences ranked by next-generation-sequencing frequency. The format is binding. The settings on record: for percentage (%): share of recovered sequences; for counts: top binders ranked by frequency. How it is done: 1 ml of the fusions from the previous step were added to 50 ul of M270 SA beads blocked with TBSTE+2% BSA at room temperature, and were incubated at room temperature for 30 min, and the supernatant was removed for binding with biotinylated thrombin.
8) Pre-Selected Fusions were Bound to 3 ul Biotinylated Human Thrombin at 1 U/ul at 4° C. for 1 h with Rotation
25 ul of M270 SA bead suspension was washed and blocked with TBSTE+2% BSA. The beads were then collected, mixed with 1 ml of each fusion/target complex, and incubated at room temperature for 30 min. The mixture was washed 3× in TBSTE, transferred to a new tube, and the cDNA was eluted with 50 ul of 0.1 N NaOH at room temperature for 3 min. Then 2.5 ul 3M NaAc, pH5.5. BioRad spin column was added and the volume was adjusted to 147 ul with H2O.
The following rounds of selections (3-5) were carried out following the above procedure with increased stringency (e.g. lower amounts of fusion molecule input and increased number of washing steps). After each round of selection, similar PCR amplification was done to prepare the DNA library for the next round of selection.
In summary, for example, one round of mRNA display consisted of the following steps: in vitro transcription, DNase digestion, conjugation with the puromycin oligo linker, in vitro translation/fusion formation, FLAG fusion molecule purification, reverse transcription, pre-selection or functional selection, and regeneration of the selected sequences. Briefly, the cDNA library was in vitro transcribed using T7 RNA polymerase, the mRNA templates with puromycin at the 3′ ends were generated by crosslinking with an oligonucleotide containing a psoralen residue and a puromycin residue at its 5′ and 3′ ends, respectively, and in vitro translation was performed using an NEB Purexpress Δ123 kit. The desired mRNA-protein fusions were then isolated from the translation reaction mixture using anti-FLAG magnetic beads. The fusion molecules were then converted into DNA/RNA hybrids through reverse transcription. This step removed secondary mRNA structures that might interfere with the subsequent selection.
To analyze the results of the selection, the DNA libraries were amplified after each round of selection using specially-designed sequencing primers that harbor Illumina next-generation-sequencing adapters. The libraries were mixed, further purified and next generation sequencing was performed. Peptide sequences recovered after each round of selection were called out according to their unique sequencing barcode and further comparison and analysis was done. Next-generation-sequencing provided the advantages of high throughput and a more complete overview of the selected species.
When thrombin was used as a target, a total of three rounds of selections were carried out. The selection pressure was increased by increasing the washing stringency (from three times to five times then to ten times for selection round 1, 2 and 3). Table 1 illustrates the top binders (ranked according to their frequency) after each round of selection. After selection round 3, more than 30% of the selected peptides contained the conserved “RDPGR” (SEQ ID NO:331) motif. The most abundant peptide “RDPGRLIFQS” (SEQ ID NO:332) was chosen for further analysis.

The mark [1] stands for this setting: Round 2 of selection, five washes.
[2] abbreviates: Round 1 of selection, three washes.
The mark [3] stands for this setting: Round 3 of selection, ten washes.

For AAVRLNSSS*, under setting [1], the “percentage (%)” value was found to be 0.0046% and the counts is given as 75.

For the substance “ETRIYIRFHT (MGCTSVHQETKKYQSETRIYIRFHTSYTYNYEHVDVWGCGSADYKDDDDKKK)”, under setting [1], the “percentage (%)” value worked out at 0.0052% and the counts amounted to 86.

Turning to “HCDTLELRPA (MGCTSVHQETKKYQSHCDTLELRPASYTYNYEHVDVWGCGSADYKDDDDKKK)”, under setting [2], the “percentage (%)” value came to 1.2E−03% and the counts worked out at 40.

For “HRLQIATVYT (MGCTSVHQETKKYQSHRLQIATVYTSYTYNYEHVDVWGCGSADYKDDDDKKK)”, under setting [2], the “percentage (%)” value is reported as 1.3E−03% and the counts worked out at 42. Further, under setting [1], the “percentage (%)” value amounted to 0.0109% and the counts is reported as 179.

On to “KCCTSMVIQL (MGCTSVHQETKKYQSKCCTSMVIQLSYTYNYEHVDVWGCGSADYKDDDDKKK)”, for which, under setting [2], the “percentage (%)” value came out at 1.2E−03% and the counts came out at 38.

With “LKQTDFRTPI (MGCTSVHQETKKYQSLKQTDFRTPISYTYNYEHVDVWGCGSADYKDDDDKKK)”, under setting [2], the “percentage (%)” value was 1.2E−03% and the counts was 39.

As for “LQRAISSYSR (MGCTSVHQETKKYQSLQRAISSYSRSYTYNYEHVDVWGCGSADYKDDDDKKK)”, under setting [2], the “percentage (%)” value was 1.2E−03% and the counts was found to be 38.

For “PLIHPRRGYA (MGCTSVHQETKKYQSPLIHPRRGYASYTYNYEHVDVWGCGSADYKDDDDKKK)”, under setting [2], the “percentage (%)” value was determined as 1.3E−03% and the counts worked out at 43.

For “PPVLPQLVLL (MGCTSVHQETKKYQSPPVLPQLVLLSYTYNYEHVDVWGCGSADYKDDDDKKK)”, under setting [2], the “percentage (%)” value is given as 1.4E−03% and the counts turned out to be 44.

As to “QFHLEFAFTL (MGCTSVHQETKKYQSQFHLEFAFTLSYTYNYEHVDVWGCGSADYKDDDDKKK)”, under setting [3], the “percentage (%)” value is listed as 0.020% and the counts came out at 164.

Regarding “QMSFRFEVRV (MGCTSVHQETKKYQSQMSFRFEVRVSYTYNYEHVDVWGCGSADYKDDDDKKK)”, under setting [3], the “percentage (%)” value came out at 0.025% and the counts is listed as 211.

In the case of “RDPGRIVFNN (MGCTSVHQETKKYQSRDPGRIVFNNSYTYNYEHVDVWGCGSADYKDDDDKKK)”, under setting [1], the “percentage (%)” value was 0.0475% and the counts is 781. Besides, under setting [3], the “percentage (%)” value is given as 1.144% and the counts was found to be 9534.

For “RDPGRLIFQS (MGCTSVHQETKKYQSRDPGRLIFQSSYTYNYEHVDVWGCGSADYKDDDDKKK)”, under setting [1], the “percentage (%)” value amounted to 0.1608% and the counts turned out to be 2642. In addition, under setting [3], the “percentage (%)” value is 20.512% and the counts was found to be 170914.

For “RDPGRVIFEI (MGCTSVHQETKKYQSRDPGRVIFEISYTYNYEHVDVWGCGSADYKDDDDKKK)”, the “percentage (%)” value is, setting by setting: under setting [1], 0.0993%; under setting [3], 10.038%. Besides, the counts is, setting by setting: under setting [1], 1632; under setting [3], 83638.

“RDPYNVLISL (MGCTSVHQETKKYQSRDPYNVLISLSYTYNYEHVDVWGCGSADYKDDDDKKK)”: under setting [1], the “percentage (%)” value turned out to be 0.0170% and the counts is listed as 278. Under setting [3], the “percentage (%)” value amounted to 0.084% and the counts was determined as 702.

Consider “RFHLFILGTS (MGCTSVHQETKKYQSRFHLFILGTSSYTYNYEHVDVWGCGSADYKDDDDKKK)”, for which, under setting [2], the “percentage (%)” value is 1.4E−03% and the counts was found to be 46.

Turning to “RSHGQFSFTF (MGCTSVHQETKKYQSRSHGQFSFTFSYTYNYEHVDVWGCGSADYKDDDDKKK)”, under setting [3], the “percentage (%)” value came to 0.031% and the counts was 258.

For RTKIK*NGL*, under setting [1], the “percentage (%)” value was 0.0052% and the counts turned out to be 86.

On to “SIEFGLTFSF (MGCTSVHQETKKYQSSIEFGLTFSFSYTYNYEHVDVWGCGSADYKDDDDKKK)”, for which, under setting [3], the “percentage (%)” value is given as 0.023% and the counts turned out to be 195.

For “SLFVEYRITY (MGCTSVHQETKKYQSSLFVEYRITYSYTYNYEHVDVWGCGSADYKDDDDKKK)”, under setting [3], the “percentage (%)” value is reported as 0.027% and the counts was 224.

Take “SQSERATPRY (MGCTSVHQETKKYQSSQSERATPRYSYTYNYEHVDVWGCGSADYKDDDDKKK)”: under setting [2], the “percentage (%)” value was 1.5E−03% and the counts is recorded as 47.

In the case of TQPKLTIEQR, under setting [2], the “percentage (%)” value is 1.3E−03% and the counts is listed as 42.

As for VTSTYMFMYA, under setting [1], the “percentage (%)” value is 0.0051% and the counts turned out to be 84. Besides, under setting [3], the “percentage (%)” value is 0.021% and the counts came out at 175.

With VVEFHFKWCI, under setting [1], the “percentage (%)” value stood at 0.0046% and the counts was determined as 75.

For the origin of these results see patent publication US20160312212A1, “COW ANTIBODY SCAFFOLD POLYPEPTIDE METHOD AND COMPOSITION” (Roche Sequencing Solutions, Inc., priority 2015, published 2016).
